These results are taken from publication PMC2989882.

Data set [1] concerns the target T1, 3Dpol WT (RNA-dependent RNA polymerase) (poliovirus, UniProt P03300 1749-2209). Description: NMR.
Data set [2] deals with T1, 3Dpol WT (RNA-dependent RNA polymerase). In words: NMR. The source holds these as a separate data set.

Read-outs that look alike come from different tables or passages of the source.

T1 sequence (P03300 1749-2209): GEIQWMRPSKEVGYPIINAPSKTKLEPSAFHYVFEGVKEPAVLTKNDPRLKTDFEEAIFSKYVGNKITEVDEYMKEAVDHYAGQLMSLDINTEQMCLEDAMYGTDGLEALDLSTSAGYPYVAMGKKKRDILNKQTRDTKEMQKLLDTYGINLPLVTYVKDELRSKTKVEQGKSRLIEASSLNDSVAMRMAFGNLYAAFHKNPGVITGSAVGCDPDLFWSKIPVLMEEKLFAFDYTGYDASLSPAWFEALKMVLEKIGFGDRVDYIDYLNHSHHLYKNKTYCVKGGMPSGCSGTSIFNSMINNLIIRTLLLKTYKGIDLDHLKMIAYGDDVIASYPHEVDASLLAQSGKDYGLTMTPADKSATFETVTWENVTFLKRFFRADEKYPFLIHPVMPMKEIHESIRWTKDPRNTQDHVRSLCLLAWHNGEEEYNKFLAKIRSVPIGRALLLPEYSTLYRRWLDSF

B1: 3'-blocked sym/sub RNA (after 3'-dAMP incorporation) (dsRNA)
RNA 1: GCAUGGGCCCA
RNA 2: GCAUGGGCCCA
modifications: 3'-terminal 3'-deoxyadenosine (A11)
Regarding B1, in data set [1], the binding result is given as “binds”.

B2: sym/sub RNA (dsRNA)
RNA 1: GCAUGGGCCC
RNA 2: GCAUGGGCCC
Take B2: in data set [2], the binding result is given as “binds”.
